Measured values reported in paper PMC2684811 (Analytical biochemistry, 2009).

Biological target: acetylcholine-binding protein (AChBP) from Lymnaea stagnalis, carboxy-terminal hexahistidine-tagged (Lymnaea stagnalis, UniProt P58154 20-229)
Assay: SPR

Chain of acetylcholine-binding protein (AChBP) from Lymnaea stagnalis, carboxy-terminal hexahistidine-tagged (P58154 20-229): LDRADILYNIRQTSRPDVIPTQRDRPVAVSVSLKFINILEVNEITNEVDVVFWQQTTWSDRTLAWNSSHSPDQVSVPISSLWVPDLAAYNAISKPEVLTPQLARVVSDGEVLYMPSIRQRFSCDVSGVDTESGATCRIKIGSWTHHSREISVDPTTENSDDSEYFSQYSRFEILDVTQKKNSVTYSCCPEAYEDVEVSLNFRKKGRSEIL

B1: α-bungarotoxin (natural protein)
chain: IVCHTTATSPISAVTCPPGENLCYRKMWCDAFCSSRGKVVELGCAATCPSKKPYEEVTCCSTDKCNPHPKQRPG
B1: binds.
